Measurements taken from the nanobody polyreactivity screen of Harvey et al. (2022).

Test: yeast display, Sf9 membrane polyspecificity reagent, FACS + sequencing; frameworks hold sequencing errors
Outline: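 A nanobody's polyreactivity label depends on the gate it was sorted from. Yeast display cells were stained with 10% biotinylated, detergent-solubilized Sf9 membrane reagent for 1 hour at 4 °C, enriched on streptavidin microbeads and sorted by FACS. The low and high (top ~1%) gates were set on anti-HA fluorescence for expression and streptavidin fluorescence for reagent binding.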

Question: For “HVQLVETGGGFVQAGVCLRLSCAASGSIFRVYVMGWYRPATVKERELVAAISHSSGGTYYADSVKWRFTISRDNAKNTVYLQMYSLKPEDTAVYYCAARSRTRRGVHLQPSSRYGSWGQGTQVTVSS”, which “polyreactivity (PSR sort gate)” value is on record?
Answer: The value was “high polyreactivity”.

Question: For “QVQLVESGGGLVQAGGSLRLSCAASGFTFYTYVMGWYIQAPGKERELVAAITSGVYTNYADSVKGRFTISRDNAKNTVDLQMKSLKPEDTAVYYCNKDVRQAYRWYDSWGQDTQVTVSS”, which “polyreactivity (PSR sort gate)” value is on record?
Answer: The value was “low polyreactivity”.

Question: Which “polyreactivity (PSR sort gate)” value does the source give for “QVQLVESGGGLVQAGGSLRLSCAASGLTFFKYTMGWYRQAPGKERELVAAISSSGGSTRYADSVKGRFTISRDNAKNTVYLQMNSLKPEDTAVYYCAKRGYTSSRRWIYDYWGQGTQVTVSS” here?
Answer: The value was “high polyreactivity”.

Question: With “QVQLVESGGGLVQAGGSLRLSCAASGRIFGAYAMGWYRQAPGKERELVAAISSGGSTNYADSVKGRFTISRDNAKNTVYLQMNSLKPEDTAVYYCAAERLYSWYYYKYNSEFYYWGQGTQVTVSS” as the sequence, how does the “polyreactivity (PSR sort gate)” value read?
Answer: The value was “low polyreactivity”.

Question: Which “polyreactivity (PSR sort gate)” value does the source give for “QVQLVESGGGLVQAGGSLRLSCAASGRNFYYYAMGWYRQAPGKERELVAAISASGGSTYYADSVKGRFTISRDNAKNTVYLQMNSLKPEDTAVYYCAARATTSQYNYYYWGQGTQVTVSS” here?
Answer: Its value is “high polyreactivity”.

Question: For “QVQLVESGGGLVQAGGSLRLSCAASGFIFRNYAMGWNTQAPGKERELVAAISRSVGRTYYADSVKGRFTISRDNAKNTVYLQMNSLKPEDPAVYYCAVHIYGIGFYFTYLYVNGYDYWGQGTQVTVSS”, which “polyreactivity (PSR sort gate)” value is on record?
Answer: The value was “high polyreactivity”.

Question: For “QVQLVESGGGLVQAGGSLRLSCAASGRIFDIYGMGWYRQAPGKERELLAAITWRGGSTYYADSVKGRFTISRDNAKNTVYLQMKSLNPEDTAVYYCNARKRGARFILGYDYWGQGTQVTVSS”, which “polyreactivity (PSR sort gate)” value is on record?
Answer: Its value is “low polyreactivity”.

Question: With “QVQLVESGGGLVQAGGSLRLSCAASGRTFPRYGMGWYRQAPGKERELVATIRTGGRTNYADSVKGRFTISRDNAKNTVYLQMNSLKPEDTAVYYCATDSSKHPYSPTLLKFDYWGQGTQVTVSS” as the sequence, how does the “polyreactivity (PSR sort gate)” value read?
Answer: Its value is “low polyreactivity”.

Question: For “QVQLVESGGGLVQAGGSLRLSCAASGRTFWYYTMGWYRQAPGKERELVASITYRGGSTYYADSVKGRFTISRDNAKNTDYLQMNSLKPEDTAVYYCNARYKRYSYDYWGQGTQVTVSS”, which “polyreactivity (PSR sort gate)” value is on record?
Answer: The value was “high polyreactivity”.

Question: Which “polyreactivity (PSR sort gate)” value does the source give for “QVQLVESGGGLVQAGGSLRLSCAASGNILVSYTMGWSRQAPGKDTELVAAINSGGNTNYADSVKGRFTISRDNAKNTVYLQMNSLKPEDTAVYYCNAYTDSLWVYPFWIYRDYDDWGHGTQVTVSS” here?
Answer: The value was “low polyreactivity”.

Question: For “QVQLVESGGGLVQAGGSLRLSCAASGSTFWSYAMGWSRQAPGKERELVAAITDSGGSTYYADSVKGRFTISRDNAKNTVYLQLNSLKPEDTAVYYCAVDSRYTAPLRPLGPFDYWGQGTQVTVSS”, which “polyreactivity (PSR sort gate)” value is on record?
Answer: Its value is “low polyreactivity”.

Question: Which “polyreactivity (PSR sort gate)” value does the source give for “QVQLVESGGGLVQAGGSLRLSCAASGLTFRNYAMGWYRQAPGKEREVVADISWSGGSTYYADSVKGRFTISRDNAKITVYLQMNSLKPEDTAVYYCAARFHYPGGPRYYYWGQGTQVTVSS” here?
Answer: The value was “high polyreactivity”.

Question: With “QVQLVESGGGLVQAGGSLRLSCAASGSIFGYYTMGWYRQAPGKERELVAAITSGGSTNYADSVKGRFTISRDNAKNTVYLQMNSLKPEDTSVYYCAKVSYYPWRYDYWGQGTQVTVSS” as the sequence, how does the “polyreactivity (PSR sort gate)” value read?
Answer: The value was “low polyreactivity”.

Question: With “QVQLVESGGGLVQAGGSLRLSCAASGRIFLGNAMGWYRQAPGKDRELVAAITNGGGSTYYADSVKGRFTISRDNAKNTVYLQMNSLKPEDTAVYYCARGYKKSVQRFEYWGQGTQVTVSS” as the sequence, how does the “polyreactivity (PSR sort gate)” value read?
Answer: Its value is “high polyreactivity”.

Question: Which “polyreactivity (PSR sort gate)” value does the source give for “QDQLVESGGGLVQAGGSLRLSCAASGRIFGINAMGWYIPAPGKERELVAAINWSGGSTYYADSVKGRFTISRDNAKNTVYLQMNSLKPEDTAVYYCATYQAGYYQSTYDYWGPGTQVTVSS” here?
Answer: Its value is “high polyreactivity”.

Question: For “QVQLVESGGGLVQAGGSLRLSCAASGSIFPLSAMGWYRQAPGKERELVAAITWRGGSTYYADSVKGRFTISRDNAKNTVYLQMNSLKPEDTAVYYCNRDLVPRFDYWGQGTQVTVSS”, which “polyreactivity (PSR sort gate)” value is on record?
Answer: Its value is “low polyreactivity”.

Question: For “QVQLVESGGGLVQAGGSLRLSCAASGSIFRRYAKGWYRQAPGKERELVAAITNRGGTTYYADSVKGRFTISRDNAKNSVYLQMNSLKPEDTAVYYCNAYYRTKGGFRFGYWGQVTQVTVSS”, which “polyreactivity (PSR sort gate)” value is on record?
Answer: Its value is “high polyreactivity”.

Question: Which “polyreactivity (PSR sort gate)” value does the source give for “QVQLVESGGGLVQAGGSLRLSCPASGSIFYENAMGWYRQAPGKARELVAAISRSGGSTYYADSVKGRFTISRDNAKNTVYLQMNSLKPEDTAVYYCNTEGGVIRRYWYDYWGQGTQVTVSS” here?
Answer: Its value is “low polyreactivity”.

Question: For “QVQLVESGGGLVQAGGSLRLSCAASGSISGLYAKGWYRQAPGKERELVAAITFRDGTTSYADSVKGRFTISRDNAKNTVYLQMNSLKPEDTAVYYCAAVDRDSNSSVPTLVHWGQGTQVTVSS”, which “polyreactivity (PSR sort gate)” value is on record?
Answer: The value was “low polyreactivity”.

Question: Which “polyreactivity (PSR sort gate)” value does the source give for “QVQLVESGGGLVQAGGSLRLSCASSGITFDKYAMGWYRQAPGKERELVAAINRSGGSTYYADSVKGRFTISRDNAKNTVYLQINSLKPEDTAVYYCAAVKPPDYYYWGQGTQVTVSS” here?
Answer: Its value is “high polyreactivity”.

Question: For “QVQLVESGGGLVQAGGSLRLSCAASGYIFSGYARGWYRKAPGKERELVAAISSNGGSTYYADSVKGRFTISRDNANNTVYVQMNSLKPEDTAVYYCNRGLAARVGRGDYWGQGTQVTVSS”, which “polyreactivity (PSR sort gate)” value is on record?
Answer: Its value is “low polyreactivity”.

Question: Which “polyreactivity (PSR sort gate)” value does the source give for “QVQLVESGGGLVQAGGSLRLSCAASGSIFWANAKGWYRQAPGKERELVATITSGGRTYYADSVKGRFTISRDNAKNTVYLQMNSLKPEDTAVYYCARVPPQYRWGRRLVYVHVDYWGQGTQVTVSS” here?
Answer: Its value is “low polyreactivity”.

Question: For “QVQLVESGGGLVQAGGSLRLSCAASGSTIDIYAMGWYRQAPGKERELVAAISNSGDTYYADSVKGRFTISRDNAKNTVYLQMNSLKPEDTAVYYCAAPAAGDEYDYWGQGTQVTVSS”, which “polyreactivity (PSR sort gate)” value is on record?
Answer: The value was “high polyreactivity”.

Question: For “QVQLVESGGGLVQAGGSLSLSCAASGSTFGYYARGWYRQAPGKERELVATITIGGYTHYADSVKGRFTISRDNAKNTVYLQMNSLKPEDTAFYYCAKRYYTNRHSRAFGYWGQGTQVTVSS”, which “polyreactivity (PSR sort gate)” value is on record?
Answer: The value was “high polyreactivity”.

Question: With “QVQLVESGGGLVQAGGSLRLSCAASGFTFSRYTMGWYRQAPGKERELVAAITSVGSTYYADSVKGRFTISRDNAKNTVYLQMNSLKPEDTAVYYCARTYSTWYYYWGQGTQVTVSS” as the sequence, how does the “polyreactivity (PSR sort gate)” value read?
Answer: The value was “high polyreactivity”.

Question: For “QVQLVESGGGLVQAGGSLRLSCAASGRIFWVYAMGWYRQAPGKERELVAAISSTGDGTYYADSVKGRFTISRDNAKNTVYLQMNSLKPVDTAVYYCAADFRVARSPLSGGSDYWGQGTQVTVSS”, which “polyreactivity (PSR sort gate)” value is on record?
Answer: Its value is “low polyreactivity”.

Question: For “QVQLVESGGGLVQAGGSLRLSCCATGSIFYSYVMGWYRQAPGKEREWFAAISRNGQSTYYADSVKGRFTISLDNAKNTVYLQMNSLKPDDTAVYYCAARSRDKYDYWGQGTQVTVSS”, which “polyreactivity (PSR sort gate)” value is on record?
Answer: Its value is “high polyreactivity”.

Question: With “QVQLVESGGGLVQAGGSLRLSCAASGSIFQWNAMGWYRQAPGKERELVAAISTRGGRTYYADSVKGRFTISRDNAKNTVYLQMNSLKPEDTAVYYCAKQYGSYGRYYKYYYWGQGTQVTVSS” as the sequence, how does the “polyreactivity (PSR sort gate)” value read?
Answer: Its value is “high polyreactivity”.

Question: Which “polyreactivity (PSR sort gate)” value does the source give for “QVQLVESGGGLVQAGGSLRLSCAASGSTIVGYAMGWYRQAPGKERELVAAISRTGASTYYADSVKGRFTISRDNAKNTVYLQMISLKPEDTAVYYCAAGREYWGVTREYWGQGTQVTVSS” here?
Answer: Its value is “high polyreactivity”.

Question: For “QVQLVESGGGFVQAGGSLRLSGAASGSIFYCNAMGWYRQAPGKDRELVAAISYSGGSTYYADSVKGRFTLSRDTAKNTVYLQMNSLKPEDTAVSDGAAGPITLRYLTIYYTFDYWGQGTQVTVSS”, which “polyreactivity (PSR sort gate)” value is on record?
Answer: The value was “high polyreactivity”.

Question: Which “polyreactivity (PSR sort gate)” value does the source give for “QVQLAESGGGFVQAGGTLRLTCAASGSIFTSNAMGWFRQAPGKERELVAPSSWRGTSTYYADSVKGRYTISRDNAKTTVYLQMNSLKPVDTAVYYCAKYRRFRPYGSNGIYDYWGQGTQVTVSS” here?
Answer: Its value is “high polyreactivity”.
